From patent US20230382948A1, “DELIVERY OF ENDOTHELIAL CELL-LADEN MICROGEL ELICITS ANGIOGENESIS IN SELF-ASSEMBLING ULTRASHORT PEPTIDE HYDROGELS” (KING ABDULLAH UNIVERSITY OF SCIENCE AND TECHNOLOGY, priority 2020, published 2023) come the findings set out here.

Series [1] can be described thus: Peptide gelation study (vial inversion method). Format: physicochemical. The following applies: for Time to form hydrogel: 4 mg/mL, room temperature, in the presence of PBS. As to the method: (§1) The preweighed (as per the required final concentration) peptide powder was dissolved in 0.9 mL of Milli-Q® water in a glass vial. The solution was vortexed for 5-10 s to obtain a clear and homogeneous solution. To this peptide solution, 0.1 mL of PBS buffer (10×, w/o Ca^2+ and Mg^2+) was added. To ensure a homogeneous distribution of buffer in the solution, the glass vial was further vortexed for 2-3 s. The glass vial was kept undisturbed on the bench, and hydrogel formation was observed using the vial inversion method, as shown in FIG. 9. The pH of the solutions of IVFK (SEQ ID NO. 1) and IVZK (SEQ ID NO. 2) was 5.57 and 5.48 at a 5 mg/mL concentration, respectively. After the addition of PBS, the pH changed to 7.7 and 7.6 for IVFK (SEQ ID NO. 1) and IVZK (SEQ ID NO. 2), respectively. The pH of the Milli-Q® water and phosphate buffer used was 6.7 and 7.4, respectively.

Series [2] can be described thus: Microgel stability under cell culture procedures. Format: physicochemical. Particulars: for Microgel size and shape stability: autoclaving, UV irradiation, trypsinization, rocking, 37 and 22° C. As to the method: A 400 μL amount of microgels was diluted in 6 mL of DMEM, and aliquots of 1 mL were seeded in five 35 mm plastic Petri dishes and one 40 mm glass Petri dish. Each dish containing microgels was treated as follows: (1) Autoclaving at 121° C. for 20 min using the glass dish, (2) UV irradiation for 30 min, and (3) 0.125% trypsin-EDTA at 37° C. for 5 min. In addition, the remaining dishes containing microgels were treated for 16-18 days as follows: (4) 37° C., 95% humidity, and 5% CO2, (5) 37° C., 95% humidity, and 5% CO2 under rocker conditions at 30 rpm, and (6) 22° C. on a shelf. Microgel imaging was done before treatment and follow up every other day. FIG. 31 summarizes the experimental design.
Microgel imaging was done at each condition and time point using a CLSM Zeiss® 710 or 880 by tile scanning with 15% overlapping and online stitching to capture as many microgels as possible from the dish. The Feret diameter and roundness of each microgel was calculated using ImageJ software by manually drawing up to 59 microgel contours per condition. All statistical data analysis and microgel descriptor plotting were conducted in Origin software. To assess the effect of the treatments on the microgel diameter and roundness, a Kruskal—Wallis test with Posthoc test pairwise Mann—Whitney U tests was applied.

Another series can be described thus: pH of peptide solutions. In kind it is physicochemical. The following applies: for pH of the peptide solution: 5 mg/mL in Milli-Q water; for pH of the peptide solution after the addition of PBS: 5 mg/mL. As to the method:
as §1

Another series deals with HUVECs. In words: 3D SUP hydrogel bead assay coculture (angiogenesis in vitro assay). In kind it is cell-based, human. Particulars: for Endothelial network formation in bulky hydrogel: after 20 days of coculture, HUVEC-laden microgels, HDFn-loaded bulky hydrogel. The procedure: This assay was done by iterating the 4 combinations between SUP bulk-hydrogels ((3) and SUP microgels (p) (i.e., β-IVFK (SEQ ID NO. 1)+μ-IVFK (SEQ ID NO. 1); β-IVFK (SEQ ID NO. 1)+μ-IVZK (SEQ ID NO. 2); βIVZK (SEQ ID NO. 2)+μ-IVFK (SEQ ID NO. 1); β-IVZK (SEQ ID NO. 2)+μ-IVZK (SEQ ID NO. 2)). The next procedure is the same for all combinations using as an example β-IVFK (SEQ ID NO. 1)+μ-IVFK (SEQ ID NO. 1). HUVECs were cultured on μ-IVFK (SEQ ID NO. 1) for 24 h as described previously. By the bead assay seeding day, IVFK (SEQ ID NO. 1) powder for β-hydrogel was dissolved at 8 mg/mL in sterile water 1 h before seeding. Meanwhile, HDFn cells were harvested and resuspended in 2 xPBS at 1.2×10^6 HDFn cells/mL, and simultaneously, HUVEC laden μ-IVFK (SEQ ID NO. 1) were spun down in a tube at 50 g for 5 min. The supernatant was discarded, and 200 μL of HUVEC-ladenμ-IVFK (SEQ ID NO. 1) was mixed with 200 μL of HDFn cells in 2×PBS. Immediately, 100 μL of IVFK (SEQ ID NO. 1) solution at 8 mg/mL was poured on the culture dish and mixed with 100 μL of HUVEC-laden μ-IVFK (SEQ ID NO. 1) with HDFn cells in 2×PBS. The 3D hydrogel bead assay coculture was incubated at 37° C. for 10 min to guarantee β-IVFK (SEQ ID NO. 1) gelation. The final concentration of β-IVFK (SEQ ID NO. 1) was 4 mg/mL. Afterward, 2 mL of EGM-2 (EBM supplemented with singleQuots) was added to each dish containing the 3D hydrogel bead assay coculture, and the medium was changed every other day until fixation for immunofluorescence on culture day 8 and day 21.
The medium was removed from the 3D SUP hydrogel bead assay coculture samples and incubated with PBS at 37° C. for 15 min. Samples were fixed with 4% formaldehyde (v/v) in PBS for 30 min at 22° C. and washed with PBS for 15 min at 22° C. under rocking. Later, samples were detached from the bottom of the plate using a bent spatula and transferred to individual wells in a 24-well plate where they were permeabilized with 0.5 mL per well of (v/v) Triton® X-100 in PBS for 1 h at 22° C. under rocking. After, samples were blocked overnight at 4° C. in a wet chamber under rocking with 0.5 mL per well of 10% (v/v) goat serum in PBS containing 0.01% (v/v) Triton® X-100. From the next step and on, samples were protected from light all of the time. Samples were incubated for 36 h at 4° C. in a wet chamber under rocking with anti-CD31 Alexa® Fluor 647 and anti-Vimentin Alexa® Fluor 488, both diluted 1/100 in blocking buffer. Samples were washed with PBS for […] at 22° C. with shaking, replacing the PBS every hour. Then, cell nuclei were stained with 0.1 μg/mL DAPI in PBS for 5 min at 22° C. and washed three times with PBS for 5 min Finally, samples were transferred to 27 mm glass bottom dishes and imaged with a CLSM Zeiss® 710 or 880. Imaging of the entire sample was done by whole mount Z-stack tile scanning, and zoom-in images were Z-stack imaging with orthogonal views. Maximum intensity projections of the whole mount and zoom-in are presented.

[3] abbreviates: 22 C. at day 0, 2, 4, 10, 12, 14, 16, 18, the 5th table.
Where [4] appears, read: 22 C. at day 0, 2, 4, 10, 12, 14, 16, the 4th table.
Setting [5] is: 22 C., Autoclaving, UV and Trypsin, the 4th table.
Setting [6] is: 22 C., Autoclaving, UV and Trypsin, the 5th table.
Where [7] appears, read: 37 C. at day 0, 2, 4, 10, 12, 14, 16, 18, the 5th table.
The mark [8] stands for this setting: 37 C. at day 0, 2, 4, 10, 12, 14, 16, the 4th table.
Where [9] appears, read: 37 C. at day 0, 2, 4, 16, 12, 14, 16, 18, the 5th table.
[10] abbreviates: 37 C. with rocking at day 0, 2, 4, 10, 12, 14, 16, 18, the 5th table.
Setting [11] is: 37 C. with rocking at day 0, 2, 4, 10, 12, 14, 16, the 4th table.
[12] abbreviates: 37 C. with rocking at day 0, 2, 4, 10, 12, 14, 36, 18, the 5th table.

Turning to “Ac-Ile-Val-Cha-Lys-NH2 (IVXK; HELM PEPTIDE1{[ac].I.V.[Cha].K.[am]}$$$$V2.0; SMILES CC[C@H](C)[C@H](NC(C)=O)C(=O)N[C@H](C(=O)N[C@@H](CC1CCCCC1)C(=O)N[C@@H](CCCCN)C(N)=O)C(C)C) [IVZK, self-assembling ultrashort tetrapeptide, Z = cyclohexylalanine, forms hydrogels and microgels]”, in series [1], the “Critical gelation concentration in bulky hydrogels” value is given as 0.3 wt % and the “Time to form hydrogel” value was determined as 10 min. For the same substance, the “Microgel size and shape stability” value in series [2] is “maintain their size and shape”. Besides, in the series “pH of peptide solutions”, the “pH of the peptide solution” value is on record as 5.48 and the “pH of the peptide solution after the addition of PBS” value stood at 7.6. The “Endothelial network formation in bulky hydrogel” value in the series with HUVECs is “developed an evident endothelial network”. Also, the Endothelial sprouting result in the series with HUVECs (soft bulk hydrogel 4 mg/mL, after 8 days in culture) was “show initial signs of sprouting”.
Turning to “Ac-Ile-Val-Phe-Lys-NH2 (Ac-IVFK-NH2) [self-assembling ultrashort tetrapeptide, forms hydrogels and microgels]”, in series [1], the “Critical gelation concentration in bulky hydrogels” value is 0.4 wt %. The “Time to form hydrogel” value in series [1] stood at 10 min. Moreover, the “X2 (Kruskal-Wallis), microgel diameter” value in series [2] (setting [3]) turned out to be 10.76; in series [2] (setting [4]) it was 1.69; in series [2] (setting [5]), 3.99; in series [2] (setting [6]) it was 5.61; in series [2] (setting [8]), 1.28; in series [2] (setting [9]), 13.16. The “X2 (Kruskal-Wallis), microgel diameter” value in series [2] (setting [10]) is 10.89; in series [2] (setting [11]) it was 5.81. In addition, the “X2 (Kruskal-Wallis), microgel roundness” value worked out at 7.72 in series [2] (setting [3]); 1.65 in series [2] (setting [4]); 6.48 in series [2] (setting [5]); 1.82 in series [2] (setting [6]); 12.93 in series [2] (setting [7]); 7.52 in series [2] (setting [8]). The “X2 (Kruskal-Wallis), microgel roundness” value was 3.62 in series [2] (setting [11]) and 4.28 in series [2] (setting [12]). Also, the “p (Kruskal-Wallis), microgel diameter” value in series [2] (setting [3]), in series [2] (setting [4]), in series [2] (setting [5]), in series [2] (setting [6]), in series [2] (setting [8]) and in series [2] (setting [9]) was greater than 0.05 in each case. Besides, the “p (Kruskal-Wallis), microgel diameter” value is reported as greater than 0.05 in series [2] (37 C. with mocking at day 0, 2, 4, 10, 12, 14, 16, the 4th table) and greater than 0.05 in series [2] (setting [10]). For the same substance, the “p (Kruskal-Wallis), microgel roundness” value in series [2] (setting [3]), in series [2] (setting [4]), in series [2] (setting [5]), in series [2] (setting [6]), in series [2] (setting [7]) and in series [2] (setting [8]) was greater than 0.05 throughout. Also, the “p (Kruskal-Wallis), microgel roundness” value in series [2] (setting [11]) and in series [2] (setting [12]) was greater than 0.05 throughout. Also, the “Microgel size and shape stability” value in series [2] was “maintain their size and shape”. The “pH of the peptide solution” value in “pH of peptide solutions” was determined as 5.57. Also, in the series “pH of peptide solutions”, the “pH of the peptide solution after the addition of PBS” value is 7.7. For the same substance, the “Endothelial network, comparison of bulky hydrogels” value in the series on HUVECs (IVFK versus IVZK bulky hydrogel, 20 days of coculture) is “more extended and complex”. Moreover, the “Lumen (branched hollow structures), comparison of bulky hydrogels” value with HUVECs (IVFK versus IVZK bulky hydrogels) is “more visible and also larger”. In addition, the “Endothelial network formation in bulky hydrogel” value in the series with HUVECs is “developed an evident endothelial network”.
